pKd: −log10 of the molar value.
Legend:
[1] = molecular target: DNMT1 (Homo sapiens) (UniProt P26358); settings: cited from earlier work
[2] = molecular target: hUSP7 residues 561-1102 (human) (UniProt Q93009); assay: ITC; 20 µM USP7(561-1102) in the cell titrated with 1.2 mM PAF15 at 293 K; 10 mM HEPES pH 7.5, 150 mM NaCl, 0.25 mM TCEP; one-site model

Sequence of UniProt P26358 (P26358 whole entry, the tested form may be a part): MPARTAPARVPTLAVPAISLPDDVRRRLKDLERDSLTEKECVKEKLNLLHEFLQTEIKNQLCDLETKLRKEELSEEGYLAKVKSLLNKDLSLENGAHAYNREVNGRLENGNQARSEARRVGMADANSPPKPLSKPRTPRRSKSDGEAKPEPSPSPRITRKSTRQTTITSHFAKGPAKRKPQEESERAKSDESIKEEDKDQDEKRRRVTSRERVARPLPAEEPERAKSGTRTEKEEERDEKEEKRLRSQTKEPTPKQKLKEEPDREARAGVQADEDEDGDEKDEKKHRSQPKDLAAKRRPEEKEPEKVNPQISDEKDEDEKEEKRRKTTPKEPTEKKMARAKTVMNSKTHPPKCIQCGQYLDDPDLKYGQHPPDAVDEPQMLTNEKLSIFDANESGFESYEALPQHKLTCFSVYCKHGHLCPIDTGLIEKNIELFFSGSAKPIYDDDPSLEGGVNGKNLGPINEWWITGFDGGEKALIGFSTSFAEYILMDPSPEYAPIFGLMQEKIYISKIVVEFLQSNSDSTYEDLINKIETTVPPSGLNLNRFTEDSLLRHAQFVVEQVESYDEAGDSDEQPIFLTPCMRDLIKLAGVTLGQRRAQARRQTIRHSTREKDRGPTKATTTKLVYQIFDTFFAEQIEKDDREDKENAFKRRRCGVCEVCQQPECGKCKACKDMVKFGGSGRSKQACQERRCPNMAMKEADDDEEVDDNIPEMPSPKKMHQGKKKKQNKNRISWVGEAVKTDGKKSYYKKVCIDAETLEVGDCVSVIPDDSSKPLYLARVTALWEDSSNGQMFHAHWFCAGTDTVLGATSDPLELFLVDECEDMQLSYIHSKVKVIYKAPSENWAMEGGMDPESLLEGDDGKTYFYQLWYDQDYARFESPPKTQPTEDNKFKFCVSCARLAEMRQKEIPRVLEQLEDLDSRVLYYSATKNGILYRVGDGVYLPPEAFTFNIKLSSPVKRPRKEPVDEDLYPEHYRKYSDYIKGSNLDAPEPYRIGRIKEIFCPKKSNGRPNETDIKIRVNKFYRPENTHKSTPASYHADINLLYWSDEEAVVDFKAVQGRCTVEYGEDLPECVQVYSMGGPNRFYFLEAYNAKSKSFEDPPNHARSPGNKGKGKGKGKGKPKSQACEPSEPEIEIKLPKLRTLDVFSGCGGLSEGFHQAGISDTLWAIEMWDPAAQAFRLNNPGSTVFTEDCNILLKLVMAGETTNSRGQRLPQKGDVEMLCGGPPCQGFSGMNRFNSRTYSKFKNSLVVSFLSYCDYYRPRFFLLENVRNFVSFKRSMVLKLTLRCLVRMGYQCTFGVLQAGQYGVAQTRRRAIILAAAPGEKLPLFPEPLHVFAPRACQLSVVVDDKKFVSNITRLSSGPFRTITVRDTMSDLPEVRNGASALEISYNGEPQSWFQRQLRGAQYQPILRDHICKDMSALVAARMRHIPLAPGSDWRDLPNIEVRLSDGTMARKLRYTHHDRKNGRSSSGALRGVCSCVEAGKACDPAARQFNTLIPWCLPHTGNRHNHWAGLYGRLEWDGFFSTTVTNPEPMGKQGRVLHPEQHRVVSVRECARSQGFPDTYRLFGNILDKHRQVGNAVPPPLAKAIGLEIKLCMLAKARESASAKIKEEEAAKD

Row | pKd [2] | Substance | pKd [1]
1 |  | USP7 561-1102 (from UniProt Q93009) | 6.22
2 | 4.49 | full-length hPAF15 wild-type, C-terminal FLAG tag (from UniProt Q15004 1-111) (natural protein) | 
